Data from paper PMC3039559, “A Blue Native-PAGE analysis of membrane protein complexes in Clostridium thermocellum” (BMC Microbiology, 2011).

B1: Ferritin and Dps (Cthe_0016) (natural protein, UniProt A3DBC9 1-159, looked up)
chain: MSKLYDNLNEQMNFELESAYIYATMSAYLDSLNMKGMTHFFDEQVKEEMEHAGKIKKFLQDTGYGIKYRPLNPGDGKFDSIEDVFKKALAHEKTVTSRINDLVKQAREEGDQRVLNLLAWFVDEQIEEENMFGVLVERLERINGHWNGLYILDKELGER
notes: ferritin (annotated Ferritin and Dps), Clostridium thermocellum ATCC 27405, locus Cthe_0016, 18.6 kDa; also called spots 6 and 7; source: endogenous, C. thermocellum membrane fraction solubilised with 1.0% DDM; copies: 24
B2: Ornithine carbamoyltransferase (Cthe_1869) (enzyme, UniProt A3DGL1 1-307, looked up)
chain: MEHLISLHDLTVEDFESIFKLAEKLKRQQKEGIPHHLLKGKTLGMIFTKSSTRTRVSFEVGMYQLGGYPLFLSANDIQLGRGETIYDTAQVLSRYVDGIMIRTFAQSDVEDLARYGNVPVINGLTDLMHPCQILADLFTIYEHKGTLKGLKLAYVGDGNNVANSLLHGCAKVGMDIAVASPKGYECDSRIVEEAKEDAKASGANILLTEDPEEAIKDADVVYTDTWVSMGQESEKEERIKVFMPYQVNNTLFSKAHEDAIFLHCLPAYRGYEVTEDVIDGSQSVIFDEAENRLHVQKAIMALLMGNK
notes: ornithine carbamoyltransferase, Clostridium thermocellum ATCC 27405, locus Cthe_1869, 34 kDa; also called OTCase; spot 27; source: endogenous, C. thermocellum membrane fraction solubilised with 1.0% DDM
B3: Carboxyl transferase (Cthe_0699) (enzyme, UniProt A3DDA5 1-516, looked up)
chain: MDKVDKIGLLREKLAQVEQGGGAEKIAKQHDAGKMTARERIQALFDENSFVEIDTFVETRSIDFDMQKKKVPGDGVVTGYGSIDGRLVFVAAQDFTVIGGSLGEMHAAKITKVMDMAMKMGAPFISINDSGGARIEEGIDALKGFGDIFYRNTLASGVIPQISVIMGPCAGGAVYSPAITDFIFMVDKTSQMFITGPQVIKSVTGEDVTFEKLGGAETHNSISGVAHFRSSSEKECIEQIKKLISYLPDNNLSDVPIVPTQDDINRITDNLVDIIPQDSNKPYDMMEIITSVVDNGDFFEIQKDFAKNIIIGFGRMNGGTVGIVANQPKVAAGVLDVNSSDKAARFVRFCDAFNIPIITFTDVPGYLPGVGQEHSGVIRHGAKLLYAFSEATVPKINVIVRKAYGGAYIAMNSKHLGADMVFAWPSAEIAVMGPEGAANIIFKKDIAAADDPMETRKRLIEEYREKFSNPYVAASRGYVDDVIDPATTRIRLISALEMLASKRENRPAKKHGNIPL
notes: carboxyl transferase with two carboxyl transferase domains, Clostridium thermocellum ATCC 27405, locus Cthe_0699, 56 kDa; also called spots 4 and 15; source: endogenous, C. thermocellum membrane fraction solubilised with 1.0% DDM
B4: Polynucleotide phosphorylase/polyadenylase (Cthe_0418) (enzyme, UniProt A3DCH7 1-700, looked up)
chain: MYKTFSMELAGRTLTIETGKLAQLANGSVLVRYGDTVVLSTATASATPREGVDFFPLSVDYEERLYAVGKIPGGFIKREGKPSEKAILTARVIDRPLRPLFPKDLRNDVAIVNTVLSVDQDNSPELAALLGSSIAVSISDIPFNGPVGAVILGLIDGEVIINPTEKQKEISQMYVTLAGTRNKIVMIEAGANEVPDEVMLDAIKKGHEEIKKIVDFIDGIVKEVGKPKFEYESAEVPEEIFNAVREYAYDKMREAVLAVDKQVRDKNIDDLTKEITEHFAEVFPEMEPAIKEAIYKLEKKVVREYILEEGRRVDGRRLDEIRPLSAEVGLLPRVHGSGLFTRGQTQVLSSVTLGAMGDVQILDGIDTEETKRYMHHYNFPGFSVGEAKSSRGPGRREIGHGALAERALEPVIPSEEEFPYTIRVVSEVLMSNGSTSQGSVCGSTLALMDAGVPIKKPVAGISAGLVVDENNPDRFVTFMDIQGIEDFFGDMDFKVAGTKDGITAIQVDIKIDGLTEEIIKQAFELTRKGRLYIIDNVLLKAIPEPRKQMSKYAPKIISTTINPDKIREVIGPGGKMINKIIDETGVKIDINDDGRVYIFSSDIQAGKRARSMIEAIAKDIEPGQVFLGRVIRVTSFGAFVEFLPGKEGLVHISKLDKKRVERVEDIVRVGDQILVKVIEIDKQGRVNLSRKDAMEDEWDK
notes: polynucleotide phosphorylase/polyadenylase, Clostridium thermocellum ATCC 27405, locus Cthe_0418, 77 kDa; also called Polyribonucleotide phosphorylase; PNPase; source: endogenous, C. thermocellum membrane fraction solubilised with 1.0% DDM
B5: ABC transporter related protein (Cthe_3148) (natural protein, UniProt A3DK64 1-632, looked up)
chain: MENNVKKNKKSIVLRLFKDILEFYPVMLPVAIVCILFNATISSIPAVFMQNVIAIVENNWRTGDWNAVGGRILSLVAVLVAFYTLSILSGIAYNQMMAIITQGTLKKFRCKMFARMQTLPIKYVDTHNHGDIMSVYTNDIDTLRQMISQSFPQLLLSGITVLTVFSIMVYFCLWLTIIVLIGVIAMFFVTRRVGGGSAKYFIRQQKALGRVEGFIEEMMNGQKVIKVFCREEEVKKDFDKLNEALFDDARKANRYANILAPILNNIGNVLYVFVAITGGVLLVTNAPNVSLSGLSMGISIVVPFLNMTKQFVGNINQVSQQINAVIMGLAGAQRIYELIDEEPEQDDGYVTLVNVREENGQLIECEERTGIWAWKHPHSSDGSVTYTKLMGDVRLFNVDFEYEPGKSVLHDISLYAKPGQKVAFVGATGAGKTTITNLLNRFYDIADGKIRYDGININKIKKSDLRRAVGIVLQDTNLFTGTVMDNIRYGKLDATDEECIAAAKLAGADDFIRRLPDGYYTMLTENGANLSQGQRQLISIARVAVADPPVMILDEATSSIDTRTEAIVQRGMDALMEGRTVFVIAHRLSTVKNANVIIVLDHGRIIERGTHEELIAQKGQYYQLYTGAFELE
notes: ABC transporter related protein with fused ABC and IM domains, Clostridium thermocellum ATCC 27405, locus Cthe_3148, 70 kDa; also called ABC transporter with fused ABC and IM domains; Class 1 ABC transporter; source: endogenous, C. thermocellum membrane fraction solubilised with 1.0% DDM

Target: the molecule itself
Assay: native gel or EMSA; two-dimensional blue native PAGE (4-15% gel) then SDS-PAGE of the membrane fraction solubilised at 4°C in 1.0% (w/v) DDM; about 40 μg protein; spots identified by MALDI-TOF/TOF; complex mass estimated from BN-PAGE markers
For B1, the “stoichiometry N” value was 24.
With B2 the “stoichiometry N” value was 3.
B3 was tested, and the “stoichiometry N” value was 4.
B4 was tested, and the “stoichiometry N” value was 2.
With B5 the “stoichiometry N” value was 2.
